Measurements taken from patent US20110300138A1 (published 2011).

Assays:
[1] = target: T1, thyroid stimulating hormone receptor (full length human TSHR) (human, UniProt P16473 22-764); assay: competitor ^125I-K1-70 IgG, TSHR coated tubes; 0.003 µg/mL in assay buffer
T1 construct: Full length TSHR coated onto plastic tubes (TSHR coated tubes, as in WO2004/050708A2); also called TSH receptor
Description: (§1) Binding inhibition assays were carried out using TSHR coated tubes as described in WO2004/050708A2. […] After aspiration, the tubes were washed and 100 μL of ¹²⁵I-labelled protein (5×10⁴ cpm) added and incubated for 1 hour at room temperature with shaking. The tubes were then aspirated, washed and counted in a gamma counter. Inhibition of labelled protein binding was calculated as 100×[1−(cpm bound in the presence of test material/cpm bound in the presence of control material)].

[2] = target: T1, thyroid stimulating hormone receptor …; assay: competitor ^125I-K1-70 IgG, TSHR coated tubes; 3 µg/mL in assay buffer
Description: as §1

[3] = target: T1, thyroid stimulating hormone receptor …; assay: competitor ^125I-K1-70 IgG, TSHR coated tubes; 0.03 µg/mL in HBD
Description: as §1

[4] = target: T1, thyroid stimulating hormone receptor …; assay: competitor ^125I-K1-70 IgG, TSHR coated tubes; 1 µg/mL in HBD
Description: as §1

[5] = target: T1, thyroid stimulating hormone receptor …; assay: competitor ^125I-K1-70 IgG, TSHR coated tubes; 0.001 µg/mL in HBD
Description: as §1

[6] = target: T1, thyroid stimulating hormone receptor …; assay: competitor ^125I-K1-70 IgG, TSHR coated tubes; 10 µg/mL in assay buffer
Description: as §1

[7] = target: T1, thyroid stimulating hormone receptor …; assay: competitor ^125I-K1-70 IgG, TSHR coated tubes; 0.3 µg/mL in assay buffer
Description: as §1

[8] = target: T1, thyroid stimulating hormone receptor …; assay: competitor ^125I-K1-70 IgG, TSHR coated tubes; 0.03 µg/mL in assay buffer
Description: as §1

[9] = target: T1, thyroid stimulating hormone receptor …; assay: competitor ^125I-K1-70 IgG, TSHR coated tubes; 0.003 µg/mL in HBD
Description: as §1

[10] = target: T1, thyroid stimulating hormone receptor …; assay: competitor ^125I-K1-70 IgG, TSHR coated tubes; 0.1 µg/mL in HBD
Description: as §1

[11] = target: T1, thyroid stimulating hormone receptor …; assay: competitor ^125I-K1-70 IgG, TSHR coated tubes; 0.3 µg/mL in HBD
Description: as §1

[12] = target: T1, thyroid stimulating hormone receptor …; assay: competitor ^125I-K1-70 IgG, TSHR coated tubes; 100 µg/mL in assay buffer
Description: as §1

[13] = target: T1, thyroid stimulating hormone receptor …; assay: competitor ^125I-K1-70 IgG, TSHR coated tubes; 0.01 µg/mL in assay buffer
Description: as §1

[14] = target: T1, thyroid stimulating hormone receptor …; assay: competitor ^125I-K1-70 IgG, TSHR coated tubes; 10 µg/mL in HBD
Description: as §1

[15] = target: T1, thyroid stimulating hormone receptor …; assay: competitor ^125I-K1-70 IgG, TSHR coated tubes; 1 µg/mL in assay buffer
Description: as §1

[16] = target: T1, thyroid stimulating hormone receptor …; assay: competitor ^125I-K1-70 IgG, TSHR coated tubes; 30 µg/mL in HBD
Description: as §1

[17] = target: T1, thyroid stimulating hormone receptor …; assay: competitor ^125I-K1-70 IgG, TSHR coated tubes; 0.01 µg/mL in HBD
Description: as §1

[18] = target: T1, thyroid stimulating hormone receptor …; assay: competitor ^125I-K1-70 IgG, TSHR coated tubes; 0.001 µg/mL in assay buffer
Description: as §1

[19] = target: T1, thyroid stimulating hormone receptor …; assay: competitor ^125I-K1-70 IgG, TSHR coated tubes; 0.1 µg/mL in assay buffer
Description: as §1

[20] = target: T1, thyroid stimulating hormone receptor …; assay: competitor ^125I-K1-70 IgG, TSHR coated tubes; 100 µg/mL in HBD
Description: as §1

[21] = target: T1, thyroid stimulating hormone receptor …; assay: competitor ^125I-K1-70 IgG, TSHR coated tubes; 30 µg/mL in assay buffer
Description: as §1

[22] = target: T1, thyroid stimulating hormone receptor …; assay: competitor ^125I-K1-70 IgG, TSHR coated tubes; 3 µg/mL in HBD
Description: as §1

| Inhibition of binding (%) [1] [%] | Inhibition of binding (%) [2] [%] | Inhibition of binding (%) [3] [%] | Inhibition of binding (%) [4] [%] | Inhibition of binding (%) [5] [%] | Inhibition of binding (%) [6] [%] | Inhibition of binding (%) [7] [%] | Inhibition of binding (%) [8] [%] | Inhibition of binding (%) [9] [%] | Inhibition of binding (%) [10] [%] | Inhibition of binding (%) [11] [%] | Inhibition of binding (%) [12] [%] | Inhibition of binding (%) [13] [%] | Inhibition of binding (%) [14] [%] | Inhibition of binding (%) [15] [%] | Inhibition of binding (%) [16] [%] | Inhibition of binding (%) [17] [%] | Inhibition of binding (%) [18] [%] | Inhibition of binding (%) [19] [%] | Inhibition of binding (%) [20] [%] | Binder | further results |
| --- | --- | --- | --- | --- | --- | --- | --- | --- | --- | --- | --- | --- | --- | --- | --- | --- | --- | --- | --- | --- | --- |
| 17 | 90.5 | 20 | 85.8 | -3 | 91.8 | 86.4 | 53.9 | -2.7 | 48.6 | 73.9 | 92.9 | 30.2 | 92.5 | 89.6 | 92.2 | 3.1 | 7.2 | 77.9 | 93.5 | K1-18 IgG (antibody, V domains shown, Human IgG1 kappa purified from hetero-hybridoma supernatant; it is not part of the secreted protein; also called human monoclonal TSHR autoantibody K1-18 (stimulating)) VH: EVQLVQSGAEVKKPGESLKISCKGSGYSFTNYWIGWVRQMPGKGLEWMGIIYPYDSDTRYSPSFEGQVTISADKSIRTAYLHWSSLKASDTAMYYCVRPRDGSYPYDAFDIWGQGTMVTVSS VL: EIVLTQSPGTLSLSPGERATLSCRASQSVSNNYLAWYQQKPGQAPRLLIYGASSRATGIPDRFSGSGSGTDFTLTISRLEPEDFAVYYCQHCGSSLRAFGQGTKVEIKR | Inhibition of binding (%) [21]: 91.2%; Inhibition of binding (%) [22]: 91% |
| 15.2 | 79.4 | 10.2 | 75.6 | 0.5 | 81.9 | 71.4 | 31.3 | -3.5 | 38.4 | 60.9 | 86 | 23.7 | 82 | 78.5 | 83.2 | 1.1 | 13.8 | 62.8 | 83.6 | K1-18 Fab (Fab, V domains shown) VH: EVQLVQSGAEVKKPGESLKISCKGSGYSFTNYWIGWVRQMPGKGLEWMGIIYPYDSDTRYSPSFEGQVTISADKSIRTAYLHWSSLKASDTAMYYCVRPRDGSYPYDAFDIWGQGTMVTVSS VL: EIVLTQSPGTLSLSPGERATLSCRASQSVSNNYLAWYQQKPGQAPRLLIYGASSRATGIPDRFSGSGSGTDFTLTISRLEPEDFAVYYCQHCGSSLRAFGQGTKVEIKR | Inhibition of binding (%) [21]: 83.3%; Inhibition of binding (%) [22]: 80.5% |
| 24 | 90.7 | 33.6 | 90.4 | -7.6 | 92.3 | 89.2 | 74.2 | 2.2 | 62.8 | 82.7 | 93.8 | 50.9 | 93.1 | 90.8 | 94.3 | 11.4 | 15.3 | 87.1 | 93.6 | K1-70 IgG (antibody, V domains shown, Human IgG1 lambda purified from hetero-hybridoma supernatant) VH: EVQLVQSGAEVKKPGQSLKISCKASGYSLTDNWIGWVRQKPGKGLEWMGIIYPGDSDTRYSPSFQGQVTISADKSINTAYLQWSSLKASDTAIYYCVGLDWNYNPLRYWGPGTLVTVSS VL: QSVLTQPPSVSAAPGQKVTISCSGSSSDIGSNYVSWYQQFPGTAPKLLIYDNNKRPSAIPDRFSGSKSGTSATLGITGLQTGDEADYYCGTWDSRLGIAVFGGGTQLTVLG | Inhibition of binding (%) [21]: 93.1%; Inhibition of binding (%) [22]: 91.7% |
| 32.7 | 89.4 | 49.6 | 89.5 | -3.6 | 89.8 | 88 | 81.7 | 5.6 | 76.5 | 87.3 | 91.5 | 64.8 | 90.6 | 88.3 | 91 | 21.6 | 12.2 | 87.5 | 90.8 | K1-70 Fab (Fab, V domains shown) VH: EVQLVQSGAEVKKPGQSLKISCKASGYSLTDNWIGWVRQKPGKGLEWMGIIYPGDSDTRYSPSFQGQVTISADKSINTAYLQWSSLKASDTAIYYCVGLDWNYNPLRYWGPGTLVTVSS VL: QSVLTQPPSVSAAPGQKVTISCSGSSSDIGSNYVSWYQQFPGTAPKLLIYDNNKRPSAIPDRFSGSKSGTSATLGITGLQTGDEADYYCGTWDSRLGIAVFGGGTQLTVLG | Inhibition of binding (%) [21]: 90.7%; Inhibition of binding (%) [22]: 90.9% |
